In patent US20140363495A1 (US Dept. of Health and Human Services, published 2014):

B1: VNTR-5 (agonist) (peptide)
peptide: YLDTRPAPV
notes: Synthetic analog with substitutions at positions 1, 2 and 9; also called pVNTR5; pVNTR-5
B2: VNTR-4 (peptide)
peptide: APDTRPAPG
notes: Synthetic 9-mer; also called pVNTR4; VNTR-4 (native)
B3: VNTR-1 (peptide)
peptide: STAPPAHNV
notes: Synthetic 9-mer; also called pVNTR1
B4: VNTR-2 (peptide)
peptide: STAPPAHGV
notes: Synthetic 9-mer; also called pVNTR2; VNTR-2 (native)
B5: VNTR-3 (agonist) (peptide)
peptide: YLAPPAHGV
notes: also called pVNTR3; pVNTR-3
B6: P1240 (peptide)
peptide: SLSYTNPAV
notes: Synthetic 9-mer
B7: P1240(1Y) (peptide)
peptide: YLSYTNPAV
B8: P1172 (peptide)
peptide: ALAIVYLIAL
notes: Synthetic 10-mer, purity >90%; also called Native 432
B9: P1172(1Y) (peptide)
peptide: YLAIVYLIAL
B10: P1177 (peptide)
peptide: YLIALAVCQC
notes: Synthetic 10-mer
B11: P1177(10V) (peptide)
peptide: YLIALAVCQV

These binders were tested against T1, HLA-A2 molecules on T2A2 cells (human) (assay: flow cytometry, upregulation of HLA-A2 on T2A2 cells, peptide 25 µg/mL).
T1 construct: whole, on cells; also called class I molecules
Description: *Peptides were used at a concentration of 25 μg/mL. ^{#}Results expressed as mean fluorescence intensity (MFI).

Point of comparison: B3, “T2A2 Binding (MFI)” value 169 MFI. Against it:
- B1 — higher, 647 MFI
- B2 — higher, 210 MFI
- B4 — lower, 166 MFI
- B5 — higher, 486 MFI

Each binder was assayed against T1, HLA-A2 molecules on T2A2 cells (assay: flow cytometry, upregulation of HLA-A2 on T2A2 cells, peptide 12.5 µg/mL).
Description: *Peptides were used at a concentration of 12.5 μg/mL. ^{#}Results expressed as mean fluorescence intensity (MFI). NGEP (P703) peptide is an HLA-A2-binding peptide. CAP-7 peptide is an HLA-A3-binding CEA peptide

Point of comparison: B7, “T2 Binding (MFI)” value 342 MFI. Against it:
- B6 — lower, 326 MFI
- B8 — lower, 249 MFI
- B9 — lower, 245 MFI
- B10 — lower, 211 MFI
- B11 — lower, 299 MFI
